Test results reported in PMC10958117, “G-site residue S67 is involved in the fungicide-degrading activity of a tau class glutathione S-transferase from Carica papaya” (The Journal of Biological Chemistry, 2024).

How the values were obtained:
[1] = substrate: N[C@@H](CCC(=O)N[C@@H](CS)C(=O)NCC(=O)O)C(=O)O; test: purified protein, by the assay type; set-up: GSH conjugation with chloronitrobenzene substrate, absorbance at 340 nm, Km for glutathione; conditions: pH 7.2; 37.0 °C
purified protein = substrate: CN(C)C(=S)SSC(=S)N(C)C; test: purified protein; format: biochemical, Carica papaya; conditions: G-site; S67 necessary for activity

B1: TCpGST (Carica papaya) (protein)
chain: MADEVVLLDFWPSPFGMRIRIALAEKGIHYEYKEENLRNKSPLLLQMNPVHKKIPVLIHNGKPICESLIQIQYIDEVWSDKAPLLPSDPYQRAQARFWADYVDKKMYEAGRRVWTTKGEEQEGAKKEFIEILKTLEGELGEKPYFGGESFGYVDLTFIPFYTWFSVYESFGKMSIEAECPKLFSWVKRCLEKESVSKSLPDQDKVYGFVLELRKALGI
notes: wild-type full-length ORF, C-terminal His6, pET-30a, E. coli BL21(DE3)
Km [1]: 30 ± 8.3 µM | Vmax [1]: 552 µM/min | kcat [1]: 0.197 ± 0.0169 s⁻¹ | kcat/Km [1]: 6550 M⁻¹ s⁻¹

B2: tau class glutathione S-transferase from Carica papaya (TCpGST) (Carica papaya) (protein)
chain: B1 chain
notes: full-length ORF (657 bp), C-terminal His6, pET-30a, E. coli BL21(DE3), Ni-NTA purified
Km (purified protein): 148.4 ± 7 µM
